Assay results from EP0826043B1.

Tests used:
Experiment in all cases: cell-based or functional assay
[1] = target: Fas cell surface receptor (human) (UniProt P25445)
[2] = target: CD28 ligand B7-1 on mouse lymph node accessory cells (mouse) (UniProt Q00609)
[3] = target: CD28 ligand B7-2 on mouse lymph node accessory cells (mouse) (UniProt P42082)
[4] = target: CD3 (TCR/CD3 complex) on Jurkat cells

Sequence of UniProt Q00609 (Q00609 38-306): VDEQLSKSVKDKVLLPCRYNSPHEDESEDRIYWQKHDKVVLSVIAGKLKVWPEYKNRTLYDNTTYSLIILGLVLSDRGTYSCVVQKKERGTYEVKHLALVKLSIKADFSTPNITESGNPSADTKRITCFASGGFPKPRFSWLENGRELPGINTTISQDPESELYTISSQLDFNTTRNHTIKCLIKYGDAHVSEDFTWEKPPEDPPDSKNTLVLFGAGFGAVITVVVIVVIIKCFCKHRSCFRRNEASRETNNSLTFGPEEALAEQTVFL
Sequence of UniProt P42082 (P42082 24-309): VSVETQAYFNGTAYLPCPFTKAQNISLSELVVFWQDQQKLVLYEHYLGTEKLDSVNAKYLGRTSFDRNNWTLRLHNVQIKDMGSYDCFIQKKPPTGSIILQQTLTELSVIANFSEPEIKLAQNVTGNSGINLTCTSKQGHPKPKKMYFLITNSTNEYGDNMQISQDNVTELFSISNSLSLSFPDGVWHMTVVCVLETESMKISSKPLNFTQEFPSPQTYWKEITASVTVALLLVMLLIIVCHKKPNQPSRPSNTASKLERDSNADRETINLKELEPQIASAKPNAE
Sequence of UniProt P25445 (P25445 26-335): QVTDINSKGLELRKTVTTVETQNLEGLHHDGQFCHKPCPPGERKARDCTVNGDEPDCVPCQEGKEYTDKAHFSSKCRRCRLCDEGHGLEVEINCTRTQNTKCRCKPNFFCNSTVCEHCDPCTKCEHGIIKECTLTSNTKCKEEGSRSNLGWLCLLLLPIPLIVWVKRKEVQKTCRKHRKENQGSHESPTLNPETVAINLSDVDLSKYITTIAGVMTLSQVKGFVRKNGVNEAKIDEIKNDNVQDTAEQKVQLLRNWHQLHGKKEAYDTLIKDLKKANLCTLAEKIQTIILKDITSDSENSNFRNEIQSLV

Q: For “CH-11 anti-Fas monoclonal antibody (Panvera)”, which viability (propidium iodide exclusion) of control (Neo) Jurkat transfectants treated with Fas antibody at 10 ng/ml [1] is on record?
A: The viability (propidium iodide exclusion) of control (Neo) Jurkat transfectants treated with Fas antibody at 10 ng/ml was < 10%.

Q: How did the viability of activated Thy-1 positive T cells at 72 hrs [2] turn out when CTLA4Ig (from Repligen) (Fc fusion) was run?
A: Its viability of activated Thy-1 positive T cells at 72 hrs is 20%.

Q: And the viability of activated Thy-1 positive T cells at 72 hrs [3]?
A: The viability of activated Thy-1 positive T cells at 72 hrs was 20%.

Q: Which cell death of Neo Jurkat clones treated with plate bound anti-CD3 (propidium iodide exclusion) [4] does the source give for anti-CD3 (OKT3) (antibody) here?
A: The cell death of Neo Jurkat clones treated with plate bound anti-CD3 (propidium iodide exclusion) was 30 to 60%.
